What was measured:
[1] = target: transient receptor potential vanilloid 1 (TRPV1), rat, in primary neonatal cardiomyocytes (rat) (UniProt O35433); experiment: cell-based or functional assay
Sequence of transient receptor potential vanilloid 1 (TRPV1), rat, in primary neonatal cardiomyocytes (rat) (O35433 whole entry): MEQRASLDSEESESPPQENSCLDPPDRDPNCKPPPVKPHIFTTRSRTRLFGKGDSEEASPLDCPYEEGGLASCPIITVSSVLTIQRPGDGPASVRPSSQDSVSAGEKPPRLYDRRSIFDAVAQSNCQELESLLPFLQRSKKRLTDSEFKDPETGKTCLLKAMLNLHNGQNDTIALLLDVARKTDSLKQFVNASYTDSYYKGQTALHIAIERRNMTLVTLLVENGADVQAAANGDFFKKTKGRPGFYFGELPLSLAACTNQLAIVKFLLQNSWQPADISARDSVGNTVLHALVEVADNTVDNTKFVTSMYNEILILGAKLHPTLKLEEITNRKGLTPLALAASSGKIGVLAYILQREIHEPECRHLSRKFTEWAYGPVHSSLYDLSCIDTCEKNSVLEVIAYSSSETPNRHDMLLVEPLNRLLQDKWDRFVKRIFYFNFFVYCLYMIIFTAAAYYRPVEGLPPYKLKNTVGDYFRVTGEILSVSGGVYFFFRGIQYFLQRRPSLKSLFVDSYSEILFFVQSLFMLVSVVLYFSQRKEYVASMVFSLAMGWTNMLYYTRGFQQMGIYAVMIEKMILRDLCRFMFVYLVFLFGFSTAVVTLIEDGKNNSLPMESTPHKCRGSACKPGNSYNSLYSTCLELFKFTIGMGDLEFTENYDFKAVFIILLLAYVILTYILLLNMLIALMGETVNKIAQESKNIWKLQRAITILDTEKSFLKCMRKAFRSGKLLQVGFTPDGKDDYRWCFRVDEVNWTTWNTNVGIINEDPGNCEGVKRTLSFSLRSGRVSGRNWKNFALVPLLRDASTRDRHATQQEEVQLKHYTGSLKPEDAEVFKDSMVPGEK

fold decrease in negative change in mitochondrial membrane potential caused by capsaicin (1 µM) in primary neonatal cardiomyocytes, with V1-cal (1 µM) given 10 minutes before [1] | Substance | calcineurin activity by free phosphate release from a calcineurin substrate (colorimetric, peptide at 10 µM, against TAT at 10 µM) (V1-cal)
– | recombinant calcineurin | In comparison to TAT, V1-cal reduced the ability for calcineurin to dephosphorylate a calcineurin substrate as measured by free phosphate release in vitro
10 fold | calcineurin, endogenous in rat primary neonatal cardiomyocytes (enzyme) | –

Source: US20190085040A1
